In assay [1] the target is T1, CD7 (human, UniProt P09564 26-180, limits assumed).
T1 construct: also called human CD7
T1 sequence (looked up): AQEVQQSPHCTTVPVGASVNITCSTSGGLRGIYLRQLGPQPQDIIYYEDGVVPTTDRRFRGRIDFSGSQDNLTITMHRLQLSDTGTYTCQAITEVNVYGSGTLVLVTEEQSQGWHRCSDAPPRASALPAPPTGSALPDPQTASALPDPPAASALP
The experiment in a line: SPR; ratio of KD to WT. Background: In SPR one partner is held on a chip, and binding of the other changes the refractive index at the surface.

In assay [2] the target is T1, CD7. Kind of assay: SPR.

The values below come from patent US20240092898A1 (BIVICTRIX, published 2024).

A word on the Kd: it is a measure of binding affinity in units of concentration. A lower Kd goes with a tighter complex.

B1: 7-AA-1 (antibody, V domains shown)
VH: QVQLQESGAELVKPGASVKLSCKASGYTFTSYWMHWVKQRPGQGLEWIGKINPSNGRTNYNEKFKSKATLTVDKSSSTAYMQLSSLTSEDSAVYYCARGGVYYDLYYAALDYWGQGTTVTVSS
VL: DIELTQSPATLSVTPGDSVSLSCRASQSISNNLHWYQQKSHESPRLLIKSASQSISGIPSRFSGSGSGTDFTLSINSVETEDFGMYFCQQSNSWPYTFGGGTKLEIKR
For the molecule B1, the “Fold reduction in binding affinity compared to WT (Kd)” value in assay [1] is 17 fold. Moreover, the Kd in assay [2] turned out to be 44.5 nM.
